The chains are these.
T1: EsCas13d, nuclease-dead (Eubacterium siraeum, UniProt B0MS50, R295A;H300A;R849A;H854A)
T1 sequence: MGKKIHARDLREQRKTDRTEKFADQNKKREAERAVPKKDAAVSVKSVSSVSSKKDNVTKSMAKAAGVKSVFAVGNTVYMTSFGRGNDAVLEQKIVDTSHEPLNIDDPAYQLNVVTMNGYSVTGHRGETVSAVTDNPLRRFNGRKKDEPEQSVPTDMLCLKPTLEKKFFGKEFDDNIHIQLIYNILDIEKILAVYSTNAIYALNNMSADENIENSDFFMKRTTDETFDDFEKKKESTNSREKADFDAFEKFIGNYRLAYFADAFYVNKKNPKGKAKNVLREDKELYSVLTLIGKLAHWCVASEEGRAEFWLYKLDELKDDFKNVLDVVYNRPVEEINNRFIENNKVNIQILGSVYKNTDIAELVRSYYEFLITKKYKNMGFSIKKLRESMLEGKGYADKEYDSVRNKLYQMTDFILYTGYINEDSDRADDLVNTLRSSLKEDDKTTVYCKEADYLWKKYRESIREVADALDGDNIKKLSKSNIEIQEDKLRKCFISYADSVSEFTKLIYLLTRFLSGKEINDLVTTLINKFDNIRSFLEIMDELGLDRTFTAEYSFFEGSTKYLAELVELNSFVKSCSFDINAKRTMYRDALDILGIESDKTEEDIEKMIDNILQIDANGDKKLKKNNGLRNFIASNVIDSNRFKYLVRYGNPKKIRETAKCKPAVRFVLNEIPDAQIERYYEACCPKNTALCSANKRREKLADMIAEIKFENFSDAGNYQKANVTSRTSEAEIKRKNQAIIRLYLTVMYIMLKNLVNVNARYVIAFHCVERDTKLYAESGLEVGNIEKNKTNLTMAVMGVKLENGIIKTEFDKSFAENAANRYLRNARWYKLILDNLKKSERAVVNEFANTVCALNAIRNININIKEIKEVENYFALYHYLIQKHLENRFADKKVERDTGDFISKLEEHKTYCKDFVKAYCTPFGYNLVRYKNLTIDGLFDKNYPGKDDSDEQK

B1: target 1 MT 5'PFS UGG 3'PFS UUA (mixed)
RNA 1: CACCCGUGCAAAAAUGCAGGGGUCUAAAACUGAGCGGAUAACCUCUCUAUGG
RNA 2: GGGAAUGGAUCCACAUCUACGAAUUCUGGCCAUAGAGAGGUUAUCCGCUCAUUAAGAUCGGAAGAGCACACGU
B2: target 1 MT 5'PFS UUU 3'PFS ACC (mixed)
RNA 1: B1 RNA 1
RNA 2: B1 RNA 2 with G28U, G29U, U52A, U53C, A54C
B3: target 1 MT 5'PFS AAC 3'PFS AUG (mixed)
RNA 1: B1 RNA 1
RNA 2: B1 RNA 2 with U27A, G28A, G29C, U52A, A54G
B4: target 1 insA 3' of 13,insA 3' of 4 (mixed)
RNA 1: B1 RNA 1
RNA 2: GGGAAUGGAUCCACAUCUACGAAUUCGUACCAUAGAGAGAGUUAUCCGCAUCACCGAGAUCGGAAGAGCACACGU
B5: target 1 MT 5'PFS ACG 3'PFS CGU (mixed)
RNA 1: B1 RNA 1
RNA 2: B1 RNA 2 with U27A, G28C, U52C, U53G, A54U
B6: target 1 MT 5'PFS UAG 3'PFS CUC (mixed)
RNA 1: B1 RNA 1
RNA 2: B1 RNA 2 with G28A, U52C, A54C
B7: target 1 MT 5'PFS UCC 3'PFS UCC (mixed)
RNA 1: B1 RNA 1
RNA 2: B1 RNA 2 with G28C, G29C, U53C, A54C
B8: target 1 MT 5'PFS GUG 3'PFS GUU (mixed)
RNA 1: B1 RNA 1
RNA 2: B1 RNA 2 with U27G, G28U, U52G, A54U
B9: target 1 MT 5'PFS UUU 3'PFS ACU (mixed)
RNA 1: B1 RNA 1
RNA 2: B1 RNA 2 with G28U, G29U, U52A, U53C, A54U
B10: target 1 MT 5'PFS UAG 3'PFS CUA (mixed)
RNA 1: B1 RNA 1
RNA 2: B1 RNA 2 with G28A, U52C
B11: target 1 MT 5'PFS UCG 3'PFS UCA (mixed)
RNA 1: B1 RNA 1
RNA 2: B1 RNA 2 with G28C, U53C
B12: target 1 MT 5'PFS GCG 3'PFS UUG (mixed)
RNA 1: B1 RNA 1
RNA 2: B1 RNA 2 with U27G, G28C, A54G
B13: target 1 MT 5'PFS GGA 3'PFS UAG (mixed)
RNA 1: B1 RNA 1
RNA 2: B1 RNA 2 with U27G, G29A, U53A, A54G
B14: target 1 MT 5'PFS ACG 3'PFS CGG (mixed)
RNA 1: B1 RNA 1
RNA 2: B1 RNA 2 with U27A, G28C, U52C, U53G, A54G
B15: target 1 MT 5'PFS UAG 3'PFS CUG (mixed)
RNA 1: B1 RNA 1
RNA 2: B1 RNA 2 with G28A, U52C, A54G
B16: target 1 MT 5'PFS GCG 3'PFS UUA (mixed)
RNA 1: B1 RNA 1
RNA 2: B1 RNA 2 with U27G, G28C
B17: target 1 MT 5'PFS GAG 3'PFS AAG (mixed)
RNA 1: B1 RNA 1
RNA 2: B1 RNA 2 with U27G, G28A, U52A, U53A, A54G
B18: target 1 C2G,C6G (mixed)
RNA 1: B1 RNA 1
RNA 2: B1 RNA 2 with U27G, G28U, G29A, C46G, C50G, U52C, U53C, A54G
B19: target 1 MT 5'PFS GAG 3'PFS AAU (mixed)
RNA 1: B1 RNA 1
RNA 2: B1 RNA 2 with U27G, G28A, U52A, U53A, A54U
B20: target 1 insU 3' of 18,insU 3' of 12 (mixed)
RNA 1: B1 RNA 1
RNA 2: GGGAAUGGAUCCACAUCUACGAAUUCGUACCAUAUGAGAGGUUUAUCCGCUCACCGAGAUCGGAAGAGCACACGU
B21: target 1 MT 5'PFS GCG 3'PFS UUC (mixed)
RNA 1: B1 RNA 1
RNA 2: B1 RNA 2 with U27G, G28C, A54C
B22: target 1 MT 5'PFS CUC 3'PFS CUG (mixed)
RNA 1: B1 RNA 1
RNA 2: B1 RNA 2 with U27C, G28U, G29C, U52C, A54G
B23: target 1 MT 5'PFS UCC 3'PFS UCU (mixed)
RNA 1: B1 RNA 1
RNA 2: B1 RNA 2 with G28C, G29C, U53C, A54U
B24: target 1 MT 5'PFS AAC 3'PFS AUC (mixed)
RNA 1: B1 RNA 1
RNA 2: B1 RNA 2 with U27A, G28A, G29C, U52A, A54C
B25: target 1 MT 5'PFS AAC 3'PFS AUA (mixed)
RNA 1: B1 RNA 1
RNA 2: B1 RNA 2 with U27A, G28A, G29C, U52A
B26: target 1 MT 5'PFS UGG 3'PFS UUG (mixed)
RNA 1: B1 RNA 1
RNA 2: B1 RNA 2 with A54G
B27: target 1 MT 5'PFS CUC 3'PFS CUA (mixed)
RNA 1: B1 RNA 1
RNA 2: B1 RNA 2 with U27C, G28U, G29C, U52C
B28: target 1 MT 5'PFS UCC 3'PFS UCA (mixed)
RNA 1: B1 RNA 1
RNA 2: B1 RNA 2 with G28C, G29C, U53C
B29: target 1 MT 5'PFS UGG 3'PFS UUU (mixed)
RNA 1: B1 RNA 1
RNA 2: B1 RNA 2 with A54U
B30: target 1 MT 5'PFS UCC 3'PFS UCG (mixed)
RNA 1: B1 RNA 1
RNA 2: B1 RNA 2 with G28C, G29C, U53C, A54G
B31: target 1 MT 5'PFS GCG 3'PFS UUU (mixed)
RNA 1: B1 RNA 1
RNA 2: B1 RNA 2 with U27G, G28C, A54U
B32: target 1 MT 5'PFS UCG 3'PFS UCC (mixed)
RNA 1: B1 RNA 1
RNA 2: B1 RNA 2 with G28C, U53C, A54C

Changes are numbered by the printed parent chain. Names and notes keep the numbering of the source.

The data set has as its target T1, EsCas13d, nuclease-dead. The data set can be described thus: crRNA (strand 1, pre-loaded); Mg2+; 40 mM Tris-HCl pH 7.5, 150 mM NaCl, 6 mM MgCl2, 1 mM DTT, 0.1% Tween-20, 0.2 mg/ml BSA; 25 C; 10 min per concentration, then washed. The settings on record: tags: His6-TwinStrep-SUMO cleaved; N-terminal SNAP kept (SNAP-Surface 488); label: 3' end held by stalled T7 RNA polymerase.
Usually Kd stands for the free concentration of one partner at which half of the binding sites on the other are occupied at equilibrium, for simple one-to-one binding. High values mean lower affinity, low ones higher affinity. B1 gave a Kd of 48.5 ± 10.5 nM.

With B2, the Kd is ~46.5 nM.

For B3, the Kd is ~60 nM.

B4 displayed an equilibrium dissociation constant (Kd) of 3.4 ± 0.5 nM.

Regarding B5, the Kd was ~34 nM.

For B6, binding was characterised by a dissociation constant (Kd) of 29.5 ± 12 nM.

Molecule B7 had a Kd of 12.1 ± 1.9 nM.

On to B8, for which binding was characterised by a dissociation constant (Kd) of 17.9 ± 2.75 nM.

B9 gave an equilibrium dissociation constant (Kd) of 21.2 ± 4.1 nM.

Turning to B10, binding was characterised by a dissociation constant (Kd) of 22.5 ± 4.5 nM.

B11 yielded a Kd of 38.5 ± 13.5 nM.

As to B12, the Kd came to 5.38 ± 0.505 nM.

For the molecule B13, the Kd stood at 17.6 ± 4.05 nM.

B14 yielded a Kd of 57 ± 18 nM.

B15 displayed a Kd of 22 ± 5 nM.

Consider B16, for which binding was characterised by a dissociation constant (Kd) of 9.05 ± 1.55 nM.

On to B17, for which the Kd was ~60 nM.

On to B18, for which binding was put at a Kd of 4.46 ± 0.23 nM.

B19: the affinity, expressed as Kd, was 39 ± 11.5 nM.

B20 gave a Kd of 26.1 ± 1.7 nM.

As for B21, the Kd worked out at 10.8 ± 2.8 nM.

Turning to B22, the Kd was ~27 nM.

Regarding B23, the Kd came out at 23 ± 8 nM.

As for B24, the Kd was ~25 nM.

With B25, binding was put at a Kd of 22 ± 8.5 nM.

B26: the Kd amounted to 85 ± 23 nM. This Kd is about 3.9-fold higher than that of the molecule before.

For B27, the equilibrium dissociation constant (Kd) is ~39 nM.

For B28, the Kd is ~20 nM.

Molecule B29 yielded a Kd of 59 ± 20.5 nM.

The molecule B30 gave a Kd of 20.6 ± 7.75 nM.

B31 came in with a Kd of 7.85 ± 1 nM.

With B32, the affinity, expressed as Kd, was 24.5 ± 6.5 nM.
